Measured values reported in the supplement of paper PMC10126150.
± gives the standard deviation of the averaged measurements.

Tested on: ATP
Assay: switch fluorescence ratio, 500 uM ATP over buffer (Cy3 cluster intensity, sum of 5 cycles each) (fold (ratio)); higher = stronger signal-on switching upon ATP binding; sequences stand for … in TCGTCGGCAGCGTCAGATGTGTATAAGAGACAGTTTTTTTTTTTTTTTTTTTTTTTTT…TC
Settings: aptamer strand: ATP DNA aptamer (quencher-CACCTGGGGGAGTATTGCGGAGGAAGG + anchor), 100 nM annealed; ATP concentration: 500 uM
Method in brief: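 Exposure to 500 uM ATP lasted 15 min at 22 °C before imaging, and a selection-buffer image was taken beforehand, for Cy3-labelled switching-strand clusters on a modified Illumina MiSeq flow-cell annealed to 100 nM quencher-labelled ATP aptamer. Five buffer/ATP cycles were run with NaOH stripping and re-annealing between them. The fluorescence ratio per cluster is summed target-cycle over summed buffer-cycle Cy3 intensity, averaged per switch-domain sequence. Clusters outside 100-1000 RFU were excluded.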

Row | Sequence | switch fluorescence ratio
1 | TCTTCGGTTG | 0.9805 ± 0.0096
2 | TCTTGACTAG | 1.06 ± 0.053
3 | TCTTGATGGG | 0.9811 ± 0.008
4 | TCTTGCATAA | 1.07 ± 0.076
5 | TCTTGGACGG | 0.985 ± 0.021
6 | TCTTGGGACG | 0.979 ± 0.042
7 | TCTTGGGTAT | 0.986 ± 0.035
8 | TCTTGTGAGT | 0.984 ± 0.012
9 | TCTTGTGG | 0.982 ± 0.012
10 | TCTTTACAAA | 1.03 ± 0.02
11 | TCTTTACAGG | 1.09 ± 0.067
12 | TCTTTATATG | 0.9989 ± 0.0033
13 | TCTTTCAGGA | 0.999 ± 0.013
14 | TCTTTGGAAC | 0.997 ± 0.034
15 | TCTTTGGGCT | 1.1 ± 0.19
16 | TCTTTGGGTT | 1.42 ± 0.92
17 | TCTTTGTTG | 1.02 ± 0.02
18 | TCTTTGTTTT | 0.991 ± 0.021
19 | TCTTTTACTG | 1.01 ± 0.033
20 | TCTTTTAGTA | 0.991 ± 0.035
21 | TCTTTTATTT | 0.998 ± 0.043
22 | TCTTTTGGGT | 0.9777 ± 0.0063
23 | TGAAAAAGG | 0.982 ± 0.019
24 | TGAAAAAGGG | 1.04 ± 0.027
25 | TGAAAAGGGA | 1.01 ± 0.017

Row | Sequence | switch fluorescence ratio
26 | TGAAAATAG | 0.992 ± 0.018
27 | TGAAAATTTT | 0.99 ± 0.029
28 | TGAAAGATTA | 1.01 ± 0.029
29 | TGAAAGGCGT | 0.9862 ± 0.0072
30 | TGAAAGGGAT | 0.988 ± 0.077
31 | TGAAAGGGTA | 0.999 ± 0.022
32 | TGAAAGTTTT | 0.971 ± 0.025
33 | TGAAATATTT | 1.21 ± 0.21
34 | TGAAATGATC | 1.001 ± 0.0098
35 | TGAAATGGGT | 1.17 ± 0.24
36 | TGAACCAAGC | 1.08 ± 0.011
37 | TGAACCGCGA | 2.96 ± 0.18
38 | TGAACGGGGG | 1.02 ± 0.049
39 | TGAACTAAAT | 1.01 ± 0.024
40 | TGAACTTGGT | 0.929 ± 0.12
41 | TGAAGAGGGG | 0.994 ± 0.012
42 | TGAAGATGTG | 0.993 ± 0.02
43 | TGAAGCCTAC | 2.57 ± 0.28
44 | TGAAGGACCG | 0.952 ± 0.026
45 | TGAAGGCTTT | 1.01 ± 0.052
46 | TGAAGGGAAC | 1.06 ± 0.13
47 | TGAAGGGACG | 1.02 ± 0.015
48 | TGAAGGGGCT | 0.9833 ± 0.0052
49 | TGAAGGTAAC | 0.98 ± 0.012
50 | TGAAGTGAAC | 1.17 ± 0.22

Row | Sequence | switch fluorescence ratio
51 | TGAAGTTCTT | 0.965 ± 0.011
52 | TGAATAAAGT | 0.978 ± 0.021
53 | TGAATAAATT | 1.02 ± 0.015
54 | TGAATAGAAC | 1.01 ± 0.015
55 | TGAATCATGG | 0.972 ± 0.022
56 | TGAATGACGG | 0.993 ± 0.026
57 | TGAATGAGAT | 0.967 ± 0.014
58 | TGAATGATTG | 0.995 ± 0.013
59 | TGAATGATTT | 0.967 ± 0.027
60 | TGAATGGGGG | 1.01 ± 0.045
61 | TGAATGTTTG | 1.01 ± 0.036
62 | TGAATTATAG | 1 ± 0.015
63 | TGAATTGGTG | 1.031 ± 0.0055
64 | TGAATTTAGA | 0.986 ± 0.025
65 | TGAATTTAGC | 1 ± 0.035
66 | TGAATTTAGT | 0.9729 ± 0.0089
67 | TGAATTTATA | 1.024 ± 0.0093
68 | TGAATTTATT | 1 ± 0.015
69 | TGAATTTTAG | 0.991 ± 0.01
70 | TGAATTTTTG | 0.989 ± 0.028
71 | TGACAAGTGG | 1.01 ± 0.015
72 | TGACAGTTGG | 1.017 ± 0.0055
73 | TGACATGGTG | 0.976 ± 0.018
74 | TGACCAATGT | 1 ± 0.028
75 | TGACCGAAAC | 1.2 ± 0.051

Row | Sequence | switch fluorescence ratio
76 | TGACCGCGGA | 1.11 ± 0.039
77 | TGACCTGCAC | 1.51 ± 0.034
78 | TGACGAAACT | 1.35 ± 0.33
79 | TGACGAAGGA | 1.23 ± 0.3
80 | TGACGACCGC | 3.33 ± 0.48
81 | TGACGAGGGG | 0.967 ± 0.031
82 | TGACGCAGGT | 1.38 ± 0.04
83 | TGACGCGCGT | 1.014 ± 0.0018
84 | TGACGGAGGC | 1.06 ± 0.051
85 | TGACGGCCAG | 1.01 ± 0.013
86 | TGACGGGTTT | 1.06 ± 0.12
87 | TGACGTTATC | 1.18 ± 0.025
88 | TGACGTTCAG | 0.996 ± 0.02
89 | TGACTGCTGG | 1.01 ± 0.027
90 | TGACTGGGAA | 1.06 ± 0.091
91 | TGAGAAGGGG | 0.991 ± 0.041
92 | TGAGACAATA | 1.1 ± 0.011
93 | TGAGAGAAGT | 0.968 ± 0.071
94 | TGAGAGAGAA | 1.01 ± 0.019
95 | TGAGAGATTT | 0.984 ± 0.011
96 | TGAGAGGCGA | 1.01 ± 0.011
97 | TGAGAGTAAC | 0.946 ± 0.07
98 | TGAGAGTTTA | 1.024 ± 0.0062
99 | TGAGATTAAA | 1.01 ± 0.0098
100 | TGAGATTTGT | 1.06 ± 0.12
